Measured values as given in paper PMC7560200 (The EMBO Journal, 2020).

Molecular target: GST-CENP-C (1-727) (human, UniProt Q03188 1-727)
Test: pull-down

Chain of GST-CENP-C (1-727) (Q03188 1-727): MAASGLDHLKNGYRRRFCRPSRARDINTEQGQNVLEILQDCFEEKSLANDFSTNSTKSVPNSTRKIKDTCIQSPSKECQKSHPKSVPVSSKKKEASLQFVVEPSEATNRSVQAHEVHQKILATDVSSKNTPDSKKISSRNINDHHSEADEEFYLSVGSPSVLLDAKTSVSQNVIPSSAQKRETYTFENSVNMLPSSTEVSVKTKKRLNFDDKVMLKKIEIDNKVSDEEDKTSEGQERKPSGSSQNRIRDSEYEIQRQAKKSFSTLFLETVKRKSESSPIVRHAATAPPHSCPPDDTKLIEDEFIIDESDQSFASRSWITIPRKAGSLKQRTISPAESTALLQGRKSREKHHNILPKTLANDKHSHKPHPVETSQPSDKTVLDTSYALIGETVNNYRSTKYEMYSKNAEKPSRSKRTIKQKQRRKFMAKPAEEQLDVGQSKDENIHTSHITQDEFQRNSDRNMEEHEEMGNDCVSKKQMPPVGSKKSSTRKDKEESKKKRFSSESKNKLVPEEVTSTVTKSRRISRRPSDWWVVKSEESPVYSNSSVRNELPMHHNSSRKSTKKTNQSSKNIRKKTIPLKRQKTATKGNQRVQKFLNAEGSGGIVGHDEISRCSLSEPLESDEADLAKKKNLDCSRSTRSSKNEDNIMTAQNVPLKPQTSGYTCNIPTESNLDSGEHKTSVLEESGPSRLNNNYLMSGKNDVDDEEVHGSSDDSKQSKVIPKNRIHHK

binding result: binds
B1: His-CENP-B (161–599) (domain or fragment, human, UniProt P07199 161-599, looked up)
chain: PSEGSGGSTTGWRAREEQPPSVAEGYASQDVFSATETSLWYDFLPDQAAGLCGGDGRPRQATQRLSVLLCANADGSEKLPPLVAGKSAKPRAGQAGLPCDYTANSKGGVTTQALAKYLKALDTRMAAESRRVLLLAGRLAAQSLDTSGLRHVQLAFFPPGTVHPLERGVVQQVKGHYRQAMLLKAMAALEGQDPSGLQLGLTEALHFVAAAWQAVEPSDIAACFREAGFGGGPNATITTSLKSEGEEEEEEEEEEEEEEGEGEEEEEEGEEEEEEGGEGEELGEEEEVEEEGDVDSDEEEEEDEESSSEGLEAEDWAQGVVEAGGSFGAYGAQEEAQCPTLHFLEGGEDSDSDSEEEDDEEEDDEDEDDDDDEEDGDEVPVPSFGEAMAYFAMVKRYLTSFPIDDRVQSHILHLEHDLVHVTRKNHARQAGVRGLGHQS
